From patent US20240309072A1 come the findings set out here.

B1: REGN10987 (antibody, V domains shown)
VH: QVQLVESGGGVVQPGRSLRLSCAASGFTFSNYAMYWVRQAPGKGLEWVAVISYDGSNKYYADSVKGRFTISRDNSKNTLYLQMNSLRTEDTAVYYCASGSDYGDYLLVYWGQGTLVTVSS
VL: QSALTQPASVSGSPGQSITISCTGTSSDVGGYNYVSWYQQHPGKAPKLMIYDVSKRPSGVSNRFSGSKSGNTASLTISGLQSEDEADYYCNSLTSISTWVFGGGTKLTVL
B2: REGN14315 (antibody, V domains shown)
VH: QVQLVQSGAEVKKPGSSVKVSCKASGDTFSTYAINWVRQAPGQGLEWMGRFIHIFGTANYAQKFQGRVTITADESTSTAYMELRSLRSEDTAVYYCARDGVDYGDYRPDYWGQGTLVTVSS
VL: EIVLTQSPGTLSLSPGERATLSCRASQSVSSNYLAWYQQKPGQAPRLLIYGASSRATGIPERFSGSGSGTDFTLTISRLEPEDFAVYYCQQYGSSLYTFGQGTKLEIK
B3: REGN14315 + REGN10987 (protein)
VH 1: B2 VH
VL 1: B2 VL
VH 2: B1 VH
VL 2: B1 VL

For the test, the target named is SARS-COV-2 Spike, Omicron variant BA.4 + R346T (BA.4.6) (SARS-COV-2), P0DTC2. Briefly: cell-based or functional assay.
As to B1, the Fold change over R10987 against D614G came out at 236 fold and the pseudovirus neutralization IC50 was 1.25 nM.

As for B2, the Fold change over R10987 against D614G was 255 fold and the pseudovirus neutralization IC50 is 1.35 nM.

Take B3: the Fold change over R10987 against D614G stood at 132 fold and the pseudovirus neutralization IC50 was found to be 0.698 nM.
